In patent publication US11236163:

Assays:
[1] = biological target: T1, recombinant human LAG-3 fusion protein (human, UniProt P18627); experiment: SPR
T1 chain: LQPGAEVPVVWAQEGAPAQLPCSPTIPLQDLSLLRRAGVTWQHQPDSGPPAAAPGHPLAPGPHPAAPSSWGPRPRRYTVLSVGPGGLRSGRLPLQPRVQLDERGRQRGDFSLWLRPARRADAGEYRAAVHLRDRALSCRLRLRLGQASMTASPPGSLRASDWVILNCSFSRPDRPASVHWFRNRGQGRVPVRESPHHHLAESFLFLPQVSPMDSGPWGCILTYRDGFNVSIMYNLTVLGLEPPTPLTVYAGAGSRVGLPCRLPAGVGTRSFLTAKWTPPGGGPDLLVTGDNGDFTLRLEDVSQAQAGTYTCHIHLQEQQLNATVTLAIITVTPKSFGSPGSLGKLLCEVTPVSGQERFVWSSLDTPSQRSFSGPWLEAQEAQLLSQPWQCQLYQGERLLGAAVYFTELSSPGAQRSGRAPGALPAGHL

[2] = biological target: T2, human LAG-3 (cell surface) (human, UniProt P18627); experiment: FACS, CHO-human LAG-3
T2 chain: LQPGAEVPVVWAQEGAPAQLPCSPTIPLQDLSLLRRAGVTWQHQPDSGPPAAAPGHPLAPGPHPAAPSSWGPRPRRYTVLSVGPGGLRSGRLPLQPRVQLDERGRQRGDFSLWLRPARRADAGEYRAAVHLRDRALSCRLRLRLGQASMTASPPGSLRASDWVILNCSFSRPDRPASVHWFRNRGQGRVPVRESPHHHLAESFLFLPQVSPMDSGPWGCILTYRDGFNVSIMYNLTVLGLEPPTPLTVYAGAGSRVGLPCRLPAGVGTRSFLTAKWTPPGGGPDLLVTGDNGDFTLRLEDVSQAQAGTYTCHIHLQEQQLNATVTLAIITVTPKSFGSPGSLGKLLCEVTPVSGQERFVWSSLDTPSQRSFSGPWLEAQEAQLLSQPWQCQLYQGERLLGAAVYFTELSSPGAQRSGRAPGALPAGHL

B1: 17E5 (antibody)
chain 1: not shown
chain 2: EIVLTQSPATLSLSPGERATLSCRASQSVSSYLAWYQQKPGQAPRLLIYDASNRATGIPARFSGSGSGTDFTLTISSLEPEDFAVYYCQQRSNWPITFGQGTRLEIK
Kd [1]: 4.53 nM
EC50 [2]: 12.3 nM
